These results are taken from article PMC9933633.

The target of the data set is SARS-CoV-2 Spike RBD (SARS-CoV-2, UniProt P0DTC2 319-541). The experiment in a line: electrochemical aptasensor.

B1: Spike RBD aptamer (51-base, Song et al. 2020) (structured_DNA)
DNA: CAGCACCGACCTTGTGCTTTGGGAGTGCTGGTCCAAGGGCGTTAATGGACA
modifications: 5' C6-NH2
Take B1: the binding result was “binds”.
